Assays:
[1] = biological target: Erk1-BSA 2.7x peptide-protein conjugate (human; bovine); test: RPA, normal assay
[2] = biological target: Histone H3 recombinant protein, human, Upstate 14-494 (human) (UniProt P68431); test: RPA, normal assay
[3] = biological target: Histone H3-BSA 2.7x peptide-protein conjugate (bovine); test: RPA, normal assay
[4] = biological target: pRb recombinant protein, human, Active Motif 31 128 (human) (UniProt P06400); test: RPA, normal assay
[5] = biological target: pRb-BSA 1x peptide-protein conjugate (bovine); test: RPA, normal assay
[6] = biological target: pRb recombinant protein, human, Active Motif 31 128 (human) (UniProt P06400); test: RPA standard curves
[7] = biological target: ERK1 (p42) active (phospho), human, Active Motif 31 152 (human) (UniProt P27361); test: RPA, competition: +free pRb peptide 10 nM
[8] = biological target: ERK1 (p44) active (GST tagged), human, Invitrogen PV 3311 (human) (UniProt P27361); test: RPA, competition: +free pRb peptide 10 nM
[9] = biological target: ERK1 (p44) inactive (GST tagged), human, Invitrogen PV 3312 (human) (UniProt P27361); test: RPA, competition: +free pRb peptide 10 nM
[10] = biological target: ERK1 (p44), human, Cell Signaling Technology 7416 (human) (UniProt P27361); test: RPA, competition: +free pRb peptide 10 nM
[11] = biological target: ERK2 (p42), human, Biosource PHO 0104 (human) (UniProt P28482); test: RPA, competition: +free pRb peptide 10 nM
[12] = biological target: Erk1-BSA 2.7x peptide-protein conjugate (human; bovine); test: RPA, competition: +free pRb peptide 10 nM
[13] = biological target: Histone H3 recombinant protein, calf, Roche 11 034 758 001 (calf) (UniProt P68432); test: RPA, competition: +free pRb peptide 10 nM
[14] = biological target: Histone H3 recombinant protein, human, Upstate 14-494 (human) (UniProt P68431); test: RPA, competition: +free pRb peptide 10 nM
[15] = biological target: Histone H3-BSA 2.7x peptide-protein conjugate (bovine); test: RPA, competition: +free pRb peptide 10 nM
[16] = biological target: pErk1/2-BSA 2.7x peptide-protein conjugate (human; bovine); test: RPA, competition: +free pRb peptide 10 nM
[17] = biological target: pRb recombinant protein, human, Active Motif 31 128 (human) (UniProt P06400); test: RPA, competition: +free pRb peptide 10 nM
[18] = biological target: pRb-BSA 1x peptide-protein conjugate (bovine); test: RPA, competition: +free pRb peptide 10 nM
[19] = biological target: ERK1 (p42) active (phospho), human, Active Motif 31 152 (human) (UniProt P27361); test: RPA, competition: +free pRb peptide 100 nM
[20] = biological target: ERK1 (p44) active (GST tagged), human, Invitrogen PV 3311 (human) (UniProt P27361); test: RPA, competition: +free pRb peptide 100 nM
[21] = biological target: ERK1 (p44) inactive (GST tagged), human, Invitrogen PV 3312 (human) (UniProt P27361); test: RPA, competition: +free pRb peptide 100 nM
[22] = biological target: ERK1 (p44), human, Cell Signaling Technology 7416 (human) (UniProt P27361); test: RPA, competition: +free pRb peptide 100 nM
[23] = biological target: ERK2 (p42), human, Biosource PHO 0104 (human) (UniProt P28482); test: RPA, competition: +free pRb peptide 100 nM
[24] = biological target: Erk1-BSA 2.7x peptide-protein conjugate (human; bovine); test: RPA, competition: +free pRb peptide 100 nM
[25] = biological target: Histone H3 recombinant protein, calf, Roche 11 034 758 001 (calf) (UniProt P68432); test: RPA, competition: +free pRb peptide 100 nM
[26] = biological target: Histone H3 recombinant protein, human, Upstate 14-494 (human) (UniProt P68431); test: RPA, competition: +free pRb peptide 100 nM
[27] = biological target: Histone H3-BSA 2.7x peptide-protein conjugate (bovine); test: RPA, competition: +free pRb peptide 100 nM
[28] = biological target: pErk1/2-BSA 2.7x peptide-protein conjugate (human; bovine); test: RPA, competition: +free pRb peptide 100 nM
[29] = biological target: pRb recombinant protein, human, Active Motif 31 128 (human) (UniProt P06400); test: RPA, competition: +free pRb peptide 100 nM
[30] = biological target: pRb-BSA 1x peptide-protein conjugate (bovine); test: RPA, competition: +free pRb peptide 100 nM
[31] = biological target: ERK1 (p42) active (phospho), human, Active Motif 31 152 (human) (UniProt P27361); test: RPA, competition: +free pRb peptide 1000 nM
[32] = biological target: ERK1 (p44) active (GST tagged), human, Invitrogen PV 3311 (human) (UniProt P27361); test: RPA, competition: +free pRb peptide 1000 nM
[33] = biological target: ERK1 (p44) inactive (GST tagged), human, Invitrogen PV 3312 (human) (UniProt P27361); test: RPA, competition: +free pRb peptide 1000 nM
[34] = biological target: ERK1 (p44), human, Cell Signaling Technology 7416 (human) (UniProt P27361); test: RPA, competition: +free pRb peptide 1000 nM
[35] = biological target: ERK2 (p42), human, Biosource PHO 0104 (human) (UniProt P28482); test: RPA, competition: +free pRb peptide 1000 nM
[36] = biological target: Erk1-BSA 2.7x peptide-protein conjugate (human; bovine); test: RPA, competition: +free pRb peptide 1000 nM
[37] = biological target: Histone H3 recombinant protein, calf, Roche 11 034 758 001 (calf) (UniProt P68432); test: RPA, competition: +free pRb peptide 1000 nM
[38] = biological target: Histone H3 recombinant protein, human, Upstate 14-494 (human) (UniProt P68431); test: RPA, competition: +free pRb peptide 1000 nM
[39] = biological target: Histone H3-BSA 2.7x peptide-protein conjugate (bovine); test: RPA, competition: +free pRb peptide 1000 nM
[40] = biological target: pErk1/2-BSA 2.7x peptide-protein conjugate (human; bovine); test: RPA, competition: +free pRb peptide 1000 nM
[41] = biological target: pRb recombinant protein, human, Active Motif 31 128 (human) (UniProt P06400); test: RPA, competition: +free pRb peptide 1000 nM
[42] = biological target: pRb-BSA 1x peptide-protein conjugate (bovine); test: RPA, competition: +free pRb peptide 1000 nM
[43] = biological target: pRb recombinant protein, human, Active Motif 31 128 (human) (UniProt P06400); test: RPA standard curves, mean of duplicate assays
[44] = biological target: pRb-BSA 1x peptide-protein conjugate (bovine); test: RPA standard curves, mean of duplicate assays
[45] = biological target: pRb recombinant protein, human, Active Motif 31 128 (human) (UniProt P06400); test: RPA standard curve, assay 1, LOD back-calculated from one-site fit
[46] = biological target: pRb-BSA 1x peptide-protein conjugate (bovine); test: as above
[47] = biological target: pRb recombinant protein, human, Active Motif 31 128 (human) (UniProt P06400); test: RPA standard curve, assay 2, LOD back-calculated from one-site fit
[48] = biological target: pRb-BSA 1x peptide-protein conjugate (bovine); test: as above

UniProt P06400, sequence (P06400 whole entry): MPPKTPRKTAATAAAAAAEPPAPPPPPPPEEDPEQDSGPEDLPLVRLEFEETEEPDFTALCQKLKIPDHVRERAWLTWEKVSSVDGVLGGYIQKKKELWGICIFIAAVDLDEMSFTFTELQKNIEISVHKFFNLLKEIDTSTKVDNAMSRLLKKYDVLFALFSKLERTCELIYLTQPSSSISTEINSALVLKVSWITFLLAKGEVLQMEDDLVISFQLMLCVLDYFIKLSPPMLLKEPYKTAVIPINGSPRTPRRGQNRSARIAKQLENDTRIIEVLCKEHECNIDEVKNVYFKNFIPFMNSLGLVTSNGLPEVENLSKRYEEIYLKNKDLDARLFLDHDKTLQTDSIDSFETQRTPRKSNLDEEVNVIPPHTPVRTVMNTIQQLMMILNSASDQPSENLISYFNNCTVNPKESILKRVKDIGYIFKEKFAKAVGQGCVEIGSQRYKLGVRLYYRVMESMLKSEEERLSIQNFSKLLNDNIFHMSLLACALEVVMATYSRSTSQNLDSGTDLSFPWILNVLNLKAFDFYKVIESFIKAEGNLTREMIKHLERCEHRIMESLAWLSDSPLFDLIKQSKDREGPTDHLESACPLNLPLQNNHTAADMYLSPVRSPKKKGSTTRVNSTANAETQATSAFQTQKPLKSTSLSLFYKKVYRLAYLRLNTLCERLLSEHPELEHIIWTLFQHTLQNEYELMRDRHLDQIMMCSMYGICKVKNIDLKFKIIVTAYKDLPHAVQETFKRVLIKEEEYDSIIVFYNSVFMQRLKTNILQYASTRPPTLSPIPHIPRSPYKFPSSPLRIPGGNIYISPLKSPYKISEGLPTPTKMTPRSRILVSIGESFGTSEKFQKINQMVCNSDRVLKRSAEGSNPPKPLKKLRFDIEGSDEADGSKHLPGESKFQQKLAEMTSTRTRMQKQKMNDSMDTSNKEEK
Erk1-BSA 2.7x peptide-protein conjugate (human; bovine), sequence (peptide, as listed by the source limits assumed, chain 1 of 2): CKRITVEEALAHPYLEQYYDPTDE
Erk1-BSA 2.7x peptide-protein conjugate (human; bovine), sequence (P02769 25-607 limits assumed, chain 2 of 2): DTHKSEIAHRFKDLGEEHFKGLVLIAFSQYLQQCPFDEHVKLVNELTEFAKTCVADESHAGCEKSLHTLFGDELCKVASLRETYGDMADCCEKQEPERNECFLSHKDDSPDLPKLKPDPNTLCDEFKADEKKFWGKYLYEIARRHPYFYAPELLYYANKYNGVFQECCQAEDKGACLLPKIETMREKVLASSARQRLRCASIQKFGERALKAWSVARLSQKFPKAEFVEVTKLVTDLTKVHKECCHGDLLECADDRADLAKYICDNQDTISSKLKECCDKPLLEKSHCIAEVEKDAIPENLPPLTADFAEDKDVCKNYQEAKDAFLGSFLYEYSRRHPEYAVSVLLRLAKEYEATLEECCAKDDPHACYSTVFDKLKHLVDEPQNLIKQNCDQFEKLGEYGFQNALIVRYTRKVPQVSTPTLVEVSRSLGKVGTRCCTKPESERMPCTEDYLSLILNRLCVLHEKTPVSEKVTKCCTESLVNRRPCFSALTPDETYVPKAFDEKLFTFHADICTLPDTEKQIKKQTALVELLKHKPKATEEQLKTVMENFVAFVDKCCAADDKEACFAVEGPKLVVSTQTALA
UniProt P28482, sequence (P28482 2-360 limits assumed): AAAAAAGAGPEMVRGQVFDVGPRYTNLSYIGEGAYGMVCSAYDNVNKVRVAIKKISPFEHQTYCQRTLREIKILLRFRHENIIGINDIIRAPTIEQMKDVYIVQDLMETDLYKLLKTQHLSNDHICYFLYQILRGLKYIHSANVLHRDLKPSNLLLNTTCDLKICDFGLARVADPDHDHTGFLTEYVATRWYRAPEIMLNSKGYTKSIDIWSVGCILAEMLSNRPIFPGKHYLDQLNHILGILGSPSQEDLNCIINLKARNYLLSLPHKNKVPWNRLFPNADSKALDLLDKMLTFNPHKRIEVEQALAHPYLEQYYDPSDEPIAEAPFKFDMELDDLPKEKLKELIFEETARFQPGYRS
Histone H3-BSA 2.7x peptide-protein conjugate (bovine), sequence (P02769 25-607 limits assumed): as the sequence (P02769 25-607 limits assumed, chain 2 of 2) above
pRb-BSA 1x peptide-protein conjugate (bovine), sequence (P02769 25-607 limits assumed): as the sequence (P02769 25-607 limits assumed, chain 2 of 2) above
pErk1/2-BSA 2.7x peptide-protein conjugate (human; bovine), sequence (P02769 25-607 limits assumed): as the sequence (P02769 25-607 limits assumed, chain 2 of 2) above

maximum standard curve signal [1]: 0.01 RFI | maximum standard curve signal [2]: 0.01 RFI | maximum standard curve signal [3]: 0.03 RFI | maximum standard curve signal [4]: 0.04 RFI | maximum standard curve signal [5]: 0.47 RFI | signal intensity relative to the pRb-BSA peptide standard curves [6]: 10% | maximum standard curve signal [7]: < 0.01 RFI | maximum standard curve signal [8]: < 0.01 RFI | maximum standard curve signal [9]: < 0.01 RFI | maximum standard curve signal [10]: < 0.01 RFI | maximum standard curve signal [11]: < 0.01 RFI | maximum standard curve signal [12]: < 0.01 RFI | maximum standard curve signal [13]: < 0.01 RFI | maximum standard curve signal [14]: < 0.01 RFI | maximum standard curve signal [15]: 0.02 RFI | maximum standard curve signal [16]: 0.01 RFI | maximum standard curve signal [17]: < 0.01 RFI | maximum standard curve signal [18]: 0.07 RFI | maximum standard curve signal [19]: < 0.01 RFI | maximum standard curve signal [20]: < 0.01 RFI | maximum standard curve signal [21]: < 0.01 RFI | maximum standard curve signal [22]: < 0.01 RFI | maximum standard curve signal [23]: < 0.01 RFI | maximum standard curve signal [24]: < 0.01 RFI | maximum standard curve signal [25]: < 0.01 RFI | maximum standard curve signal [26]: < 0.01 RFI | maximum standard curve signal [27]: 0.02 RFI | maximum standard curve signal [28]: < 0.01 RFI | maximum standard curve signal [29]: < 0.01 RFI | maximum standard curve signal [30]: < 0.01 RFI | maximum standard curve signal [31]: < 0.01 RFI | maximum standard curve signal [32]: < 0.01 RFI | maximum standard curve signal [33]: < 0.01 RFI | maximum standard curve signal [34]: < 0.01 RFI | maximum standard curve signal [35]: < 0.01 RFI | maximum standard curve signal [36]: < 0.01 RFI | maximum standard curve signal [37]: < 0.01 RFI | maximum standard curve signal [38]: < 0.01 RFI | maximum standard curve signal [39]: 0.01 RFI | maximum standard curve signal [40]: < 0.01 RFI | maximum standard curve signal [41]: < 0.01 RFI | maximum standard curve signal [42]: < 0.01 RFI | mean LOD [43]: 0.097 nM | mean LOD [44]: 0.025 nM | LOD [45]: 0.117 nM | LOD [46]: 0.024 nM | LOD [47]: 0.077 nM | LOD [48]: 0.026 nM
Substance: Rb phospho (pRb) Ser807/811 antibody, Cell Signaling Technology #9308

Reference: patent US20120220489A1
